The results in this text go back to patent publication US20250034594A1, “RNA-GUIDED GENOME RECOMBINEERING AT KILOBASE SCALE” (THE BOARD OF TRUSTEES OF THE LELAND STANFORD JUNIOR …, priority 2021, published 2025).

Holding throughout (type): cell-based
Assay [1] has as its system gene editing with Cas9 and dCas9. Put plainly: Screen of 322 new SSAP proteins, activity across all experiments (Cas9 and dCas9, Table 5). Further details: scale not given here. The text has this: (§1) 322 new SSAP proteins were identified from sequence data, synthesized, and screened for activity with Cas9 and dCas9. Gene editing activities are shown below in Table 5, followed by amino acid sequences of the proteins.

The next assay concerns gene editing with dCas9. As to the kind of experiment: Screen of 322 new SSAP proteins, gene editing activity with dCas9 (Table 5). Details: dCas9 with SSAP activity: scale not given here.
From the text: as §1

The subject of the next assay is gene editing with Cas9. As to the kind of experiment: Screen of 322 new SSAP proteins, gene editing activity with Cas9 (Table 5). Further details: Cas9 with SSAP activity: scale not given here.
From the text: as §1

B1: SSAP_1: SEQ ID NO: 172 (protein)
chain: ATNESLKNQLSTKKETGLGSAGNTIKGLMNSPAIKKRFEEVLKQRAPQYMSSIVNLVNSDINLKKCDQMSVVASCMVAATLDLPVDKNLGYAWVVPYGNKAQFQLGYKGYVQLALRTGQYKSINVIEIHEGELIDWNPLTEELKIDFSKKESDAVIGYAGYFELLNGFKKSTYWTKEQITKHKNKFSKSDFGWKKDFDAMARKTVLRNMLSKWGILSIEMQNAYTADQGIIKNEIIETGEVKENIEYIEADFESYEDNSIEEGGANE
As for B1, the “Activity across all experiments” value in assay [1] is −4.270. For the same molecule, in the assay on gene editing with dCas9, the “dCas9 with SSAP activity” value is listed as −3.622 and the “dCas9 with SSAP activity (normalized)” value is listed as −0.496. Moreover, in the assay on gene editing with Cas9, the “Cas9 with SSAP activity” value is recorded as −4.919 and the “Cas9 with SSAP activity (normalized)” value is −0.814.

B2: SSAP_126: SEQ ID NO: 295; Marispirochaeta aestuarii (protein, listed as Marispirochaeta aestuarii)
chain: RTDGTKEAGAAATAPTEGKAPAKAHKPADTIGAMIEKLKPQIERALPKHVTPDRMARMALTAIRNNPKLGQAEAVSLMGSIIQASQLGLEPNTPLGQCYIIPYNSKNGMQAQFQMGYKGIVDLAHRSGQYRQLTAHPVDEADEFRYSYGLNPDLVHVPAEKPSGKITHYYAVYHLTNGGFDFRVWSREKVEAHAKQYSKSFSSGPWQTNFDQMACKTVMIDLLRYAPKSVEIAKATSADNRTHTINPEDPDLNIDTIDGDFELEGEER
For the molecule B2, in assay [1], the “Activity across all experiments” value is −3.591. In the assay with gene editing with dCas9, the “dCas9 with SSAP activity” value was −3.777 and the “dCas9 with SSAP activity (normalized)” value is listed as −0.714. Besides, in the assay on gene editing with Cas9, the “Cas9 with SSAP activity” value is −3.406 and the “Cas9 with SSAP activity (normalized)” value was −0.596.

B3: SSAP_160: SEQ ID NO: 329; Veillonellaceae bacterium DNF00626 (protein)
chain: KTTGGLQQQQQQQAQALQNGGTTLKGYLQAMMPEIKKALPTVMTPERFTRIVMTTISTNPALQNCTPQSFLGAVMQAAQLGVEPNTPLGQAYLIPYGNQVQFQLGYKGLIDLAYRSGEVQSLQAHEVYQNDTFEYELGLNPKLKHIPALTNRGDVILYYAVIKFKNGGEGFEVMSKEDVEAFAKSKSKTYGRGPWQTDFDEMAKKTVLKKVLKYAPMKTDFIRAVATDETVKSSVAEQMADLPDETVTIDTEAQVVVDKETGEVKS
modifications: Veillonellaceae bacterium DNF00626
Turning to B3, in assay [1], the “Activity across all experiments” value is recorded as −0.901. Also, in the assay on gene editing with dCas9, the “dCas9 with SSAP activity” value was −3.690 and the “dCas9 with SSAP activity (normalized)” value is −0.763. Moreover, in the assay on gene editing with Cas9, the “Cas9 with SSAP activity” value came out at 1.888 and the “Cas9 with SSAP activity (normalized)” value stood at 0.942.

B4: SSAP_133: SEQ ID NO: 302; Lacrimispora celerecrescens (protein, listed as Lacrimispora celerecrescens)
chain: SDVKQELEKRAAGGGSQSQSVKLTKNMTIVDMVKALEPEIKRALPSILTPERFTRMALSAINNTPKLGECTPMSFIAALMNAAQLGLEPNTPLGQAYLIPYKNKGVLECQFQLGYRGLIDLAYRNDRMQSIEAQVVYENDEFSYELGLHPSLTHRPSFDEPGEIRAFYAIFRLDNGGFRFEVMSKSYVDAYATKYSKAFTSDFSPWKNNYEGMAKKTVIKQLLKYAPIKSDFQKAITLDETVKTQLSIDMSEIRNECLPDTSENSEVA
For the molecule B4, in assay [1], the “Activity across all experiments” value is given as −4.276. In addition, in the assay on gene editing with dCas9, the “dCas9 with SSAP activity” value was −3.605 and the “dCas9 with SSAP activity (normalized)” value is −0.658. Also, in the assay with gene editing with Cas9, the “Cas9 with SSAP activity” value is given as −4.946 and the “Cas9 with SSAP activity (normalized)” value is reported as −1.095.

B5: SSAP_293: SEQ ID NO: 462; Brevibacillus porteri (protein)
chain: ADQNKLVVIYNNLEKLLDSKREAMPTSFNKTRFLQNCMTVLQETKDIELCNPTTVARTMLKGAFLGLDFFNKECYAVVYKGSVEFQTDYKGEVKLAKKYSTKPVREVYAKLVREGDEFAEEINSGNQTINFRPKPFNNEEILGAFAVVNYMDGTMAYDIMSKEEIEKIKENFSRKSKQTGEYSKAWVVTPGEMYKKTVLRRLCKNIDLDFDTIEQRQAFEDAGDVDFNQEVKPAQQSPLNSTVIEAEFEEVSEEQTNAAEQE
modifications: Brevibacillus porter
notes: Brevibacillus porteri
B5: the “Activity across all experiments” value in assay [1] was −4.559. In the assay with gene editing with dCas9, the “dCas9 with SSAP activity” value is on record as −3.846 and the “dCas9 with SSAP activity (normalized)” value was −0.563. Also, in the assay on gene editing with Cas9, the “Cas9 with SSAP activity” value is recorded as −5.271 and the “Cas9 with SSAP activity (normalized)” value is listed as −0.961.

B6: SSAP_318: SEQ ID NO: 487; Shewanella morhuae (protein, listed as Shewanella morhuae)
chain: QTAQVKLSVPHQQVYQDNFNYLSSQVVGHLVDLNEEIGYLNQIVFNSLSTASPLDVAAPWSVYGLLLNVCRLGLSLNPEKKLAYVMPSWSETGEIIMKLYPGYRGEIAIASNFNVIKNANAVLVYENDHFRIQAATGEIEHFVTSLSIDPRVRGACSGGYCRSVLMDNTIQISYLSIEEMNAIAQNQIEANMGNTPWNSIWRTEMNRVALYRRAAKDWRQLIKATPEIQSALSDTEY
In the case of B6, the “Activity across all experiments” value in assay [1] is reported as −1.849. In the assay on gene editing with dCas9, the “dCas9 with SSAP activity” value was −3.743 and the “dCas9 with SSAP activity (normalized)” value was −0.597. For the same molecule, in the assay on gene editing with Cas9, the “Cas9 with SSAP activity” value is 0.045 and the “Cas9 with SSAP activity (normalized)” value amounted to 0.060.

B7: SSAP_21: SEQ ID NO: 190; Cellulosilyticum lentocellum (protein, listed as Cellulosilyticum lentocellum)
chain: SDKKELVLKETHSRLNQLLATKMEAMPKDFNQTRFLQNCMTVLQDTKGIENCHPVSIARTLLKGAFLGLDFFQRECYAIPYGGELQFQTDYKGETKMAKKYSIRDIKDIYAKVVRKGDEFKEEIVAGQQVVDFKPLPFNDAEIIGAFAVVLYQDGGMEYETMSTKQIEGIRDNFSKMKNGLMWTKTPEEAYKKTVLRRLTKKIEKDFASIDQAKAYEESSDMQFKQDEQKQDAKDPFADAVDVEFTEETEGQVRLDGEADGAK
As to B7, the “Activity across all experiments” value in assay [1] is given as −2.192. In the assay on gene editing with dCas9, the “dCas9 with SSAP activity” value is on record as −3.610 and the “dCas9 with SSAP activity (normalized)” value was −0.537. Further, in the assay on gene editing with Cas9, the “Cas9 with SSAP activity” value is −0.774 and the “Cas9 with SSAP activity (normalized)” value is reported as −0.320.

B8: SSAP_298: SEQ ID NO: 467; Nocardia aurea (protein, listed as Nocardia aurea)
chain: SESISAAADAQKVTPRIVLDRHRDAFAQVLPPTINLDRWLRLAESAINASAGLLDIFRRDRGASALKALMKCAQLGHEPGSGLFHLVPKGQAIEGWEDYKGILQRILRSALYAKVVVAPVYANDEYAFDVNVDERPRHKQAAGDRGEPVRAYAYAVHRDGSTSTIAEATPAMIAGAKAKGHKTDASTSPWQNPRAPMHQKVAVRELERFVSTSAVDLRVTGDVTDLIIEEP
As for B8, in assay [1], the “Activity across all experiments” value is −1.640. Further, in the assay on gene editing with dCas9, the “dCas9 with SSAP activity” value was −3.790 and the “dCas9 with SSAP activity (normalized)” value was −0.578. Also, in the assay with gene editing with Cas9, the “Cas9 with SSAP activity” value worked out at 0.510 and the “Cas9 with SSAP activity (normalized)” value was 0.610.

B9: SSAP_121: SEQ ID NO: 290; Bacillus sp. JAS24-2 (protein, listed as Bacillus sp.)
chain: ATNKDVKNQLANRKASAPVTTEQTVEAYMKKMGPKMAEVLPKHMDMDRMSRIALTTIRTNPKLLECSVPSLMGAVMSAVQLGLEPGLLGHCYILPYKSEATFIIGYKGMIDLARRSGHIQSIYAHAVYENDEFEYELGLHPQLKHKPSFGDRGEFIGAYAVAHFKDGGHQMEFMPKSEIEKRRGRSASANSNYSPWKTDYEEMAKKTVVRYMFKYLPISIEVQSQAQQDEVVRKDITEEPEFIEVEQQTEGDGQGDFVIEGE
For B9, the “Activity across all experiments” value in assay [1] came out at 0.692. Also, in the assay with gene editing with dCas9, the “dCas9 with SSAP activity” value is reported as 1.664 and the “dCas9 with SSAP activity (normalized)” value is 1.531. In addition, in the assay with gene editing with Cas9, the “Cas9 with SSAP activity” value is −0.279 and the “Cas9 with SSAP activity (normalized)” value is −0.275.

B10: SSAP_108: SEQ ID NO: 277; Rummeliibacillus stabekisii (protein, listed as Rummeliibacillus stabekisii)
chain: ATTTELKEQMKQQAPAQTKKPKTIEDYMKQMAPAMAEALPKHMSVDRLTRLAMTTIRTTPALRQADVSSLLGAVMQAAQLGLEPGLLGQCYLLPFKNKKKAITEVQFIIGYKGMIDLARRSGHIQSIYSHAVFENDVFEYELGLEPKLKHTPTMSTDKGAFIGAYAVAHFKDGGHQFEFMSKADIEKRKGRSKAANSDYSPWLTDYEEMAKKTVIRHMWKYLPISVEMQEQVAYDEGVGRSIKDVTPEEDVFVQAPDEILEAEATEA
Take B10: the “Activity across all experiments” value in assay [1] was −1.807. Moreover, in the assay with gene editing with dCas9, the “dCas9 with SSAP activity” value was −3.682 and the “dCas9 with SSAP activity (normalized)” value is on record as −0.539. In the assay with gene editing with Cas9, the “Cas9 with SSAP activity” value stood at 0.069 and the “Cas9 with SSAP activity (normalized)” value amounted to 0.068.

B11: SSAP_285: SEQ ID NO: 454; Chitinophaga lutea (protein, listed as Chitinophaga lutea)
chain: SNVNAPAAPVKSKIEVLKDIMNAPSVQEQFQNALRENSGVFVASVIDLFNSDTYLQNCEPKQVVMECLKAATLKLPINKNLGFAYVVPYKSNGKQIPQFQIGYKGYIQLAMRTGQYRIINADKVYEGEYRTKNKLTGEFDLSGTATSETVVGYFAHIEMLNGFAKTLYMTKEKVAAHAKKYSKSFGKETSPWHTEFDAMALKTVLRNLLSHYGYLSVEMMGAMNADIESDQVGSEVSQTINDKANKQEMTFDDAEVVDDDEKEQNPI
Regarding B11, the “Activity across all experiments” value in assay [1] is recorded as −2.441. For the same molecule, in the assay on gene editing with dCas9, the “dCas9 with SSAP activity” value is listed as −3.704 and the “dCas9 with SSAP activity (normalized)” value is −0.608. In the assay with gene editing with Cas9, the “Cas9 with SSAP activity” value was −1.178 and the “Cas9 with SSAP activity (normalized)” value is reported as −0.366.

B12: SSAP_84: SEQ ID NO: 253; Bet Fimbriiglobus ruber (protein)
chain: TDIAHRSYSAPQLSLIRRTVAKDTNQDEFDLFIEICKQQGLDPFKKQIFAQVYNKDKADKRQIVIVTSIDGYRAKAQRCGDYRPAEEETRFEADAALKIRRQPMGSFVRSCGLQVRPGQGVVSRVGEARWDEFAPLDDAEFDWVDTGETWPDTGKPKKKKVAKSAKKTLKEGNWKNMPHVMLGKCAEAQALGGGGRKRSAACTSKRRWTRSTWT
modifications: Fimbriiglobus ruber
As for B12, the “Activity across all experiments” value in assay [1] is −0.284. Besides, in the assay on gene editing with dCas9, the “dCas9 with SSAP activity” value worked out at 1.313 and the “dCas9 with SSAP activity (normalized)” value amounted to 1.563. In addition, in the assay with gene editing with Cas9, the “Cas9 with SSAP activity” value is recorded as −1.881 and the “Cas9 with SSAP activity (normalized)” value is recorded as −0.590.
